Laboratory results published in doi:10.1101/2024.05.16.594476.
Several values for one entry are separate records, joined by “and”; a condition that tells them apart may be missing. Equal values may be shown once.

Legend:
[1] = biological target: Mtb PhoP, phosphorylated with acetyl phosphate (AcP) (Mycobacterium tuberculosis) (UniProt P71814); experiment: cryo-EM structure
[2] = biological target: Mtb PhoP, phosphorylated with acetyl phosphate (AcP) (Mycobacterium tuberculosis) (UniProt P71814); experiment: […]
[3] = biological target: Mtb PhoP, phosphorylated with acetyl phosphate (AcP) (Mycobacterium tuberculosis) (UniProt P71814); experiment: […]; remark: listed apart in the source

Mtb PhoP, phosphorylated with acetyl phosphate (AcP) (from UniProt P71814 1-247) (natural protein)
stoichiometry N [1]: 2
stoichiometry N [2]: 6 and 4
stoichiometry N [3]: 2
